Reference: the supplement of paper PMC5998384

What was measured:
HeLa Kyoto [1] = experiment: solubility change mitosis vs G1/S (difference of NP-40 vs SDS log2 ratios) (log2 ratio difference); higher = more soluble in mitosis
HeLa Kyoto [2] = experiment: solubility in G1/S (NP-40 vs SDS abundance) (log2 ratio); higher = more soluble; settings: cell cycle stage: G1/S
HeLa Kyoto [3] = experiment: thermal stability score vs G1/S (z-score of summed log2 fold changes over temperatures); higher = more thermally stable than in G1/S
HeLa Kyoto [4] = experiment: melting temperature (median over replicates), in situ; higher = more thermally stable
[5] = cell cycle stage: early G1 (4.5 h after nocodazole release)
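For melting temperature (median over replicates), in situ in this document: HeLa Kyoto cells synchronized by double thymidine or nocodazole block, proteins quantified by TMT10plex mass spectrometry, three independent biological replicates.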
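For solubility change mitosis vs G1/S (difference of NP-40 vs SDS log2 ratios) in this document: synchronized HeLa Kyoto cells (double thymidine block for G1/S, nocodazole release for mitosis), protein amounts in NP-40 versus SDS lysates quantified by mass spectrometry, three biological replicates.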
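For solubility in G1/S (NP-40 vs SDS abundance) in this document: HeLa Kyoto cells arrested at G1/S by double thymidine block, proteins quantified by TMT10plex mass spectrometry in mild NP-40 versus SDS extracts, three biological replicates.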
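For thermal stability score vs G1/S (z-score of summed log2 fold changes over temperatures) in this document: synchronized HeLa Kyoto cells, proteins quantified by TMT10plex mass spectrometry, three biological replicates, mitosis taken 0.5 h after nocodazole release, G1/S directly after double thymidine block.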

Row | Sequence | solubility change mitosis (log2) (HeLa Kyoto [1]) | solubility in G1/S (log2) (HeLa Kyoto [2]) | thermal stability score (HeLa Kyoto [3]; [5]) | thermal stability score (HeLa Kyoto [3]; cell cycle stage: mitosis) | melting temperature (HeLa Kyoto [4]; cell cycle stage: G1/S) [°C] | melting temperature (HeLa Kyoto [4]; cell cycle stage: mitosis) [°C]
1 | MAAPALGLVCGRCPELGLVLLLLLLSLLCGAAGSQEAGTGAGAGSLAGSCGCGTPQRPGAHGSSAAAHRYSREANAPGPVPGERQLAHSKMVPIPAGVFTMGTDDPQIKQDGEAPARRVTIDAFYMDAYEVSNTEFEKFVNSTGYLTEAEKFGDSFVFEGMLSEQVKTNIQQAVAAAPWWLPVKGANWRHPEGPDSTILHRPDHPVLHVSWNDAVAYCTWAGKRLPTEAEWEYSCRGGLHNRLFPWGNKLQPKGQHYANIWQGEFPVTNTGEDGFQGTAPVDAFPPNGYGLYNIVGNAWEWTSDWWTVHHSVEETLNPKGPPSGKDRVKKGGSYMCHRSYCYRYRCAARSQNTPDSSASNLGFRCAADRLPTMD [SUMF1] | 0.0674 | 0.277 | -1.37 | 2.23 | 53.7 | 55.1
2 | MASSSGSKAEFIVGGKYKLVRKIGSGSFGDIYLAINITNGEEVAVKLESQKARHPQLLYESKLYKILQGGVGIPHIRWYGQEKDYNVLVMDLLGPSLEDLFNFCSRRFTMKTVLMLADQMISRIEYVHTKNFIHRDIKPDNFLMGIGRHCNKLFLIDFGLAKKYRDNRTRQHIPYREDKNLTGTARYASINAHLGIEQSRRDDMESLGYVLMYFNRTSLPWQGLKAATKKQKYEKISEKKMSTPVEVLCKGFPAEFAMYLNYCRGLRFEEAPDYMYLRQLFRILFRTLNHQYDYTFDWTMLKQKAAQQAASSSGQGQQAQTPTGKQTDKTKSNMKGF [CSNK1A1] | -0.0146 | -0.00541 | 1.17 | 1.69 | 49.6 | 50.2
3 | MAAQQRDCGGAAQLAGPAAEADPLGRFTCPVCLEVYEKPVQVPCGHVFCSACLQECLKPKKPVCGVCRSALAPGVRAVELERQIESTETSCHGCRKNFFLSKIRSHVATCSKYQNYIMEGVKATIKDASLQPRNVPNRYTFPCPYCPEKNFDQEGLVEHCKLFHSTDTKSVVCPICASMPWGDPNYRSANFREHIQRRHRFSYDTFVDYDVDEEDMMNQVLQRSIIDQ [RNF114] | 0.0396 | 0.162 | -2.47 | -2.4 | 53.2 | 53.8
4 | MVWKRLGALVMFPLQMIYLVVKAAVGLVLPAKLRDLSRENVLITGGGRGIGRQLAREFAERGARKIVLWGRTEKCLKETTEEIRQMGTECHYFICDVGNREEVYQTAKAVREKVGDITILVNNAAVVHGKSLMDSDDDALLKSQHINTLGQFWTTKAFLPRMLELQNGHIVCLNSVLALSAIPGAIDYCTSKASAFAFMESLTLGLLDCPGVSATTVLPFHTSTEMFQGMRVRFPNLFPPLKPETVARRTVEAVQLNQALLLLPWTMHALVILKSILPQAALEEIHKFSGTYTCMNTFKGRT [DHRS3] | -0.135 | -0.137 | 0.157 | -0.582 | 54 | 53.1
5 | MGKIALQLKATLENITNLRPVGEDFRWYLKMKCGNCGEISDKWQYIRLMDSVALKGGRGSASMVQKCKLCARENSIEILSSTIKPYNAEDNENFKTIVEFECRGLEPVDFQPQAGFAAEGVESGTAFSDINLQEKDWTDYDEKAQESVGIYEVTHQFVKC [C1ORF123] | -0.125 | -0.207 | -0.132 | 0.084 | 52.2 | 52.1
6 | MTSFRLALIQLQISSIKSDNVTRACSFIREAATQGAKIVSLPECFNSPYGAKYFPEYAEKIPGESTQKLSEVAKECSIYLIGGSIPEEDAGKLYNTCAVFGPDGTLLAKYRKIHLFDIDVPGKITFQESKTLSPGDSFSTFDTPYCRVGLGICYDMRFAELAQIYAQRGCQLLVYPGAFNLTTGPAHWELLQRSRAVDNQVYVATASPARDDKASYVAWGHSTVVNPWGEVLAKAGTEEAIVYSDIDLKKLAEIRQQIPVFRQKRSDLYAVEMKKP [NIT2] | -0.0539 | 0.178 | -0.442 | -1.62 | 54.5 | 54.4
